Biological target: T1, CD30 on CD30+ lymphoma cells (KARPAS-299) (UniProt P28908 19-595, limits assumed)
T1 sequence (looked up): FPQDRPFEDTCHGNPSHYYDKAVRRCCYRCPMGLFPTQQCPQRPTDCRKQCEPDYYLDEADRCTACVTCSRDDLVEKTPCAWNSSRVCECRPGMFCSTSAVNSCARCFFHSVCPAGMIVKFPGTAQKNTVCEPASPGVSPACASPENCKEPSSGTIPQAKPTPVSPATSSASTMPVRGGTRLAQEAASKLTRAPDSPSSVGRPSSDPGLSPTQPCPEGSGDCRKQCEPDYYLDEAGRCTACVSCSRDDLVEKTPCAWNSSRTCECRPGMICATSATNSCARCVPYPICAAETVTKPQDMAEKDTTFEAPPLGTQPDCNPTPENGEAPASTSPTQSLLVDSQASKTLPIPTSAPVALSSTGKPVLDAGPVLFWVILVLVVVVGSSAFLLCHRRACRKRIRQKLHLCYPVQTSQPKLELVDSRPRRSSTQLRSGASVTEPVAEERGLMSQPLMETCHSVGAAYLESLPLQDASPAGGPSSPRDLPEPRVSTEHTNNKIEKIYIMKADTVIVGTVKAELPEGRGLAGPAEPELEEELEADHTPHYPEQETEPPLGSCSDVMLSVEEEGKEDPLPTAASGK
Test: cell-based or functional assay

B1: bispecific CD30/CD16A tandem diabody (AFM13) (bispecific antibody)
chain: QVQLVQSGAEVKKPGESLKVSCKASGYTFTSYYMHWVRQAPGQGLEWMGIINPSGGSTSYAQKFQGRVTMTRDTSTSTVYMELSSLRSEDTAVYYCARGSAYYYDFADYWGQGTLVTVSSGGSGGSGGSDIVMTQSPKFMSTSVGDRVTVTCKASQNVGTNVAWFQQKPGQSPKVLIYSASYRYSGVPDRFTGSGSGTDFTLTISNVQSEDLAEYFCQQYHTYPLTFGGGTKLEINGGSGGSGGSQVQLQQSGAELARPGASVKMSCKASGYTFTTYTIHWVRQRPGHDLEWIGYINPSSGYSDYNQNFKGKTTLTADKSSNTAYMQLNSLTSEDSAVYYCARRADYGNYEYTWFAYWGQGTTVTVSSGGSGGSGGSSYVLTQPSSVSVAPGQTATISCGGHNIGSKNVHWYQQRPGQSPVLVIYQDNKRPSGIPERFSGSNSGNTATLTISGTQAMDEADYYCQVWDNYSVLFGGGTKLTVL
potency and efficacy toward target and effector cells (EC50): 0.015 nM
